T1: GST-Fkbp5 (UniProt Q64378 1-456)
T1 sequence (looked up): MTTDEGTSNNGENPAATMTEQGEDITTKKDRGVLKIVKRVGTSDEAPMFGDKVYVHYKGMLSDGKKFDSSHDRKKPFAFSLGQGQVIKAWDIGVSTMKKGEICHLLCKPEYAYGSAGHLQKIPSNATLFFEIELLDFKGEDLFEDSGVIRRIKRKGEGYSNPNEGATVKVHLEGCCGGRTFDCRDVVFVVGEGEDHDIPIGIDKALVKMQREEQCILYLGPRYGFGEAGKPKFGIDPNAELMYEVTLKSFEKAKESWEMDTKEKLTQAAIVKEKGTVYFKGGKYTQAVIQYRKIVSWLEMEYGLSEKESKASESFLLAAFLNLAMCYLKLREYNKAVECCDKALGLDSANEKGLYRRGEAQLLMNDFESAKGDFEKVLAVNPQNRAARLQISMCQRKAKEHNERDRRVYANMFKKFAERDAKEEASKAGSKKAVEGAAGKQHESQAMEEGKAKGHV

T2: GST-Fkbp5-Δ1 (UniProt Q64378 1-456, deletion of amino acids 50-138)
T2 sequence (looked up): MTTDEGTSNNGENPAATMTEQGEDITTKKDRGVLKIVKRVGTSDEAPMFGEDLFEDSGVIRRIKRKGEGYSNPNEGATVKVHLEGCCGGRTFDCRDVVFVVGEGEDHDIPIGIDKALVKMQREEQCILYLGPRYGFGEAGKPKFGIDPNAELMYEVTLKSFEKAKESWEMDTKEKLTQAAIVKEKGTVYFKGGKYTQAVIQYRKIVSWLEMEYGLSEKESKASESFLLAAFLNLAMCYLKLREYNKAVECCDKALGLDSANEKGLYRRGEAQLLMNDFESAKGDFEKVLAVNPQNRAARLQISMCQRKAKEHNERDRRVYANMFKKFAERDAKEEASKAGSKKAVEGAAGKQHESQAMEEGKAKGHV

T3: GST-Fkbp5-Δ2 (UniProt Q64378 1-456, deletion of amino acids 165-251)
T3 sequence (looked up): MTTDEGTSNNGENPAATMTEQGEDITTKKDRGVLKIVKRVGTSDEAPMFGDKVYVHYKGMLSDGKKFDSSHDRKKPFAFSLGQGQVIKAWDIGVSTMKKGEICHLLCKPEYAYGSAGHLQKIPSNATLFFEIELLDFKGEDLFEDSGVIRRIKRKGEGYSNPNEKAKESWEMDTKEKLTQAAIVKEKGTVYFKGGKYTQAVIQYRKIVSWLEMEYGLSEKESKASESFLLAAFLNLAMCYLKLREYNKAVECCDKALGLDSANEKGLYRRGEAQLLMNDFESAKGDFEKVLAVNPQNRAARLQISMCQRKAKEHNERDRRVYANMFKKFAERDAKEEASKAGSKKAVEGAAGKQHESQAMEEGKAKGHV

T4: GST-Fkbp5-W90L (UniProt Q64378 1-456, W90L)
T4 sequence (looked up): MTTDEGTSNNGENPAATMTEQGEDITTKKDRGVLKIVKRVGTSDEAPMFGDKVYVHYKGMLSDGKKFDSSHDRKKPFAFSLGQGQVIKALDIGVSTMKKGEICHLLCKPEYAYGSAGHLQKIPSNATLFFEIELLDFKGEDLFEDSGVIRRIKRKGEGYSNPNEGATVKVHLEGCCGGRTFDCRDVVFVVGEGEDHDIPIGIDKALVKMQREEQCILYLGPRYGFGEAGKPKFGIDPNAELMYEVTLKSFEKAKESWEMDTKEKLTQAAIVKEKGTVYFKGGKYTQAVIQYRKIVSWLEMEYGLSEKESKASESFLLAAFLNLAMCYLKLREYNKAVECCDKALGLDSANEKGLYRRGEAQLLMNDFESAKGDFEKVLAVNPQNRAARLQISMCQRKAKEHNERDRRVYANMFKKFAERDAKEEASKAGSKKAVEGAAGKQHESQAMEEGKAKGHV

T5: GST-Fkbp5-F130Y (UniProt Q64378 1-456, F130Y)
T5 sequence (looked up): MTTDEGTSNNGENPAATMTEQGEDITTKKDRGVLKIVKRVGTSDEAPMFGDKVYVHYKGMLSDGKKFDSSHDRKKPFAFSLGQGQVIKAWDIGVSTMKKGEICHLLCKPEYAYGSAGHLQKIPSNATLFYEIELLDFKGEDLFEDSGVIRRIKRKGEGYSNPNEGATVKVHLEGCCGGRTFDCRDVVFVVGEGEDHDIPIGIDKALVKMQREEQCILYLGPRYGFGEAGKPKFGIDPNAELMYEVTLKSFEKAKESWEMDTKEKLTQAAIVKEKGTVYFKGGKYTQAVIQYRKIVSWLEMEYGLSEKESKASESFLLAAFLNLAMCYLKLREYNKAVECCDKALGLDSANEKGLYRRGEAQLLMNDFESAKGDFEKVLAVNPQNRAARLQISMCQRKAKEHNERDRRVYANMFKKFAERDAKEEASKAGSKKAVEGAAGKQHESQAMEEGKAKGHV


Key:
Assay in all cases: pull-down
GST-Fkbp5 = target: T1, GST-Fkbp5
GST-Fkbp5-Δ1 = target: T2, GST-Fkbp5-Δ1
GST-Fkbp5-Δ2 = target: T3, GST-Fkbp5-Δ2
GST-Fkbp5-W90L = target: T4, GST-Fkbp5-W90L
GST-Fkbp5-F130Y = target: T5, GST-Fkbp5-F130Y

Binder	binding result (GST-Fkbp5)	binding result (GST-Fkbp5-Δ1)	binding result (GST-Fkbp5-Δ2)	binding result (GST-Fkbp5-W90L)	binding result (GST-Fkbp5-F130Y)
Cdk4-Δ2-6×His (natural protein, UniProt P30285 1-303, looked up) MAATRYEPVAEIGVGAYGTVYKARDPHSGHFVALKSVRVPNGGAAGGGLPVSTVREVALLRRLEAFEHPNVVRLMDVCATSRTDRDIKVTLVFEHIDQDLGCIFAEMFRRKPLFCGNSEADQLGKIFDLIGLPPEDDWPREVSLPRGAFAPRGPRPVQSVVPEMEESGAQLLLEMLTFNPHKRISAFRALQHSYLHKEESDAE	binds	–	–	–	–
Cdk4-6×His (natural protein, UniProt P30285 1-303, looked up) MAATRYEPVAEIGVGAYGTVYKARDPHSGHFVALKSVRVPNGGAAGGGLPVSTVREVALLRRLEAFEHPNVVRLMDVCATSRTDRDIKVTLVFEHIDQDLRTYLDKAPPPGLPVETIKDLMRQFLSGLDFLHANCIVHRDLKPENILVTSNGTVKLADFGLARIYSYQMALTPVVVTLWYRAPEVLLQSTYATPVDMWSVGCIFAEMFRRKPLFCGNSEADQLGKIFDLIGLPPEDDWPREVSLPRGAFAPRGPRPVQSVVPEMEESGAQLLLEMLTFNPHKRISAFRALQHSYLHKEESDAE	binds	binds	binds	binds	binds

The remaining lines, values ahead:

binding result (GST-Fkbp5)	binding result (GST-Fkbp5-Δ1)	binding result (GST-Fkbp5-Δ2)	binding result (GST-Fkbp5-W90L)	binding result (GST-Fkbp5-F130Y)	Binder
binds	–	–	–	–	Cdk4-Δ1-6×His (domain or fragment, UniProt P30285 101-303, looked up) RTYLDKAPPPGLPVETIKDLMRQFLSGLDFLHANCIVHRDLKPENILVTSNGTVKLADFGLARIYSYQMALTPVVVTLWYRAPEVLLQSTYATPVDMWSVGCIFAEMFRRKPLFCGNSEADQLGKIFDLIGLPPEDDWPREVSLPRGAFAPRGPRPVQSVVPEMEESGAQLLLEMLTFNPHKRISAFRALQHSYLHKEESDAE
binds	–	–	–	–	Cdk4-Δ3-6×His (domain or fragment, UniProt P30285 1-200, looked up) MAATRYEPVAEIGVGAYGTVYKARDPHSGHFVALKSVRVPNGGAAGGGLPVSTVREVALLRRLEAFEHPNVVRLMDVCATSRTDRDIKVTLVFEHIDQDLRTYLDKAPPPGLPVETIKDLMRQFLSGLDFLHANCIVHRDLKPENILVTSNGTVKLADFGLARIYSYQMALTPVVVTLWYRAPEVLLQSTYATPVDMWSV
